According to article PMC4902918, “Production in Pichia pastoris of complementary protein-based polymers with heterodimer-forming WW and PPxY domains” (Microbial Cell Factories, 2016):
No end group written: not given here. C4^P polymer block = not defined here; O‑glycan = not defined here

B1: C4^P-D^PPxY protein polymer (C4^P polymer with a C-terminal PPxY proline-rich ligand), O-glycosylated (other)
chain: {C4^P polymer block}-EYPPYPPPPYPS(O‑glycan)GPAGG
modifications: reading uncertain; also: O-glycans heterogeneous, tentatively Man3 to Man7, mostly phosphorylated in diester linkage, minor fraction nonglycosylated
B2: C4^P-D^PPxY* protein polymer (Ser12 to Ala mutant of the PPxY module, nonglycosylated) (other)
chain: {C4^P polymer block}-EYPPYPPPPYPAGPAGG
modifications: reading uncertain; also: nonglycosylated

Columns and labels:
[1] = target: T1, C4^P-D^WW protein polymer (C4^P polymer with a C-terminal WW domain WWP1-1) (human); assay: ITC; MicroCal VP-ITC, 25 °C, 10 mM sodium phosphate pH 7; 200 uM C4^P-D^WW (1.4 mL) in the cell, 2.9 mM ligand in the syringe, 63 injections of 4 uL; triplicate, Kd values averaged; conditions: both partners purified
[2] = target: T1, C4^P-D^WW protein polymer (C4^P polymer …); assay: other fluorescence titration; steady-state tryptophan fluorescence (excitation 295 nm, emission 340 nm); 500 uL of 10 uM C4^P-D^WW in the cuvette, 500 uM ligand added stepwise up to ~24 uM; 10 mM sodium phosphate pH 7, RT; triplicate, fit on averaged data; conditions: both partners purified

T1 sequence (chain, as listed by the source): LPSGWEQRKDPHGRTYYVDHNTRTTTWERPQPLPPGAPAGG

Binder | Kd [1] [µM] | stoichiometry N [1] | Kd [2] [µM]
B1 | 9.3 | ~0.9 | 2.5
B2 | 9.2 | ~0.9 | 2.7
